Laboratory results reported in patent publication US20110256557A1, “IDENTIFYING PARATHYROID HORMONE AGONISTS AND ANTAGONISTS” (DISCOVERYBIOMED, INC., priority 2008, published 2011).

T1: PTH1R (Homo sapiens, UniProt Q03431)
T1 sequence (Q03431 27-593): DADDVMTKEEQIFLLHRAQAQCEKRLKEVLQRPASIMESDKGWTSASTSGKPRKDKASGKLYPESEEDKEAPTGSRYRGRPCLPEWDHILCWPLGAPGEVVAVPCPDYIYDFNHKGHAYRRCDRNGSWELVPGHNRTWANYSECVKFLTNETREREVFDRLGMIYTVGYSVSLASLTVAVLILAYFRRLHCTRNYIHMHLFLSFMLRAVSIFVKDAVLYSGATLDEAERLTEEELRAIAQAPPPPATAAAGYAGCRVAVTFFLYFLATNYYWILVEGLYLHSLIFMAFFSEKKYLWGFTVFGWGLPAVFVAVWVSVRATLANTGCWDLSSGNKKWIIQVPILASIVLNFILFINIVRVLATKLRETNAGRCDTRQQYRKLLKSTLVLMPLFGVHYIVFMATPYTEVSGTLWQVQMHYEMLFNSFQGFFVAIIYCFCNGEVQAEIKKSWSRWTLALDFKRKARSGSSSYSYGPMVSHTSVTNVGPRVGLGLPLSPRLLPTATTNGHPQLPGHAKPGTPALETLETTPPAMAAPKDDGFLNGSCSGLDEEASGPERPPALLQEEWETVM


Experiments:
[1] = test system: luciferase reporter bearing TCF/LEF binding elements; assay: TCF/LEF luciferase reporter assay in UMR-106 cells; type: cell-based, rat; details: UMR-106 cells treated with PTH
Excerpt: HEK293, UMR-106 and mouse embryonic fibroblast (MEF) cells were maintained in Dulbecco's Modified Eagle Medium (DMEM) with 10% Fetal Calf Serum (FCS). Mouse Wnt3a conditioned medium (Wnt3a CM) was produced from mouse L cells stably transfected with mouse Wnt3a (American Type Culture Collection; Manassas, Va.) and control conditioned medium (Control CM) was from non-transfected L cells. IgG, LRP6N-IgG, DKK1, Sclerostin, VSVG-LRP6N and Myc-Fz8CRD conditioned media were produced from HEK 293 cells transfected with the individual plasmids. Transfections were carried out using lipofectamine reagent (Invitrogen; Carlsbad, Calif.). Luciferase assays were carried out in either UMR-106 or HEK 293 cells as described previously (Wan et al., Am. J. Pathol. 166:1379-92 (2005)), with 0.3 μg of TCF-Luc reporter plasmid plus 50 ng of Renilla luciferase plasmid (internal control) per well in the 12-well plate. Experiments were repeated at least three times with triplicate for each experiment.

β-catenin = assay: Western blot of cytosolic β-catenin in HEK 293 cells; type: cell-based; details: for effect on PTH-elevated β-catenin level (accumulation in cytosol/cytoplasm): PTH-treated cells (FIG. 5 cells not stated; FIG. 10, 27 HEK293)
Method: (§1) Cells were harvested in cavitation buffer (5 mM HEPES, pH 7.4, 3 mM MgCl2, 1 mM EGTA, 250 mM sucrose) containing protease and phosphatase inhibitors and homogenized by nitrogen cavitation (200 p.s.i., for 5 minutes) in a cell disruption bomb (Parr Instrument Co.; Moline, Ill.). The cell homogenate was centrifuged twice at 700 g for 10 minutes to pellet the nuclei. The supernatant was further centrifuged at 100,000 g (Beckman SW50.1 rotor) for 1 hour to separate the membrane and cytosol fractions, and the resulting membrane pellet was washed three times with cavitation buffer before use in the assays (Zhang et al., Biochem. J. 343:541-9 (1999)). Immunoprecipitation and Western blot analysis of cell lysates were performed as described previously (Wan et al., Am. J. Pathol. 166:1379-92 (2005)).

PTH1R = target: T1, PTH1R; assay: Co-immunoprecipitation of exogenous LRP5/LRP6 constructs with PTH1R in HEK293 cells; type: cell-based; details: co-expressed with PTH1R in HEK293 cells
Excerpt: PTH1R tagged with HA was subcloned into pcDNA3.1. cDNAs from human LRP5 (Mao et al., Mol. Cell. 7:801-9 (2001)) and LRP6 (Tamai et al., Nature 407:530-35 (2000)) tagged with HA and VSVG were subcloned into pCMV and pCS2^+, respectively. LRP6N+T (LRP6 N-terminal plus the transmembrane domain) and LRP6T+C (LRP6 transmembrane domain plus C-terminal) tagged with VSVG were subcloned into pCS2^+. LRP6N+1479m, LRP6N+1490m, LRP6N+1493m and LRP6N+1496m were generated by mutagenesis of either the serine (at amino acid 1490 or amino acid 1496) or threonine (at amino acid 1479 or amino acid 1493) to alanine LRP6N-IgG was generated by fusing the LRP6 extracellular domain with IgG (Tamai et al., Nature 407:530-35 (2000)). si-GFP (Wan et al., Am. J. Pathol. 166:1379-92 (2005)) and si-LRP6 plasmids were generated using a BS/U6 vector. Briefly, a 22-nucleotide oligo (oligo 1) corresponding to nucleotides 2981 to 3002 of the human LRP6 coding region was first inserted into the BS/U6 vector digested with ApaI (blunted) and HindIII. The inverted motif that contains the six-nucleotide spacer and five Ts (oligo 2) was then subcloned into the HindIII and EcoRI sites of the intermediate plasmid to generate BS/U6/LRP5/6.
as §1

Molecule	effect on PTH-stimulated TCF/LEF luciferase (transcriptional) activity [1]	effect on PTH-elevated β-catenin level (accumulation in cytosol/cytoplasm) (β-catenin)	effect on Wnt3a-elevated β-catenin level (β-catenin; Wnt3a-treated cells (FIG. 5 cells not stated; FIG. 27 HEK293))	binding of LRP6 construct to PTH1R (IP assay) (PTH1R)
DKK1: secreted protein binding to LRP6 at the extracellular domain (protein, UniProt O94907 32-266, looked up) Dickkopf-related protein 1: TLNSVLNSNAIKNLPPPLGGAAGHPGSAVSAAPGILYPGGNKYQTIDNYQPYPCAEDEECGTDEYCASPTRGGDAGVQICLACRKRRKRCMRHAMCCPGNYCKNGICVSSDQNHFRGEIEETITESFGNDHSTLDGYSRRTTLSSKMYHTKGQEGSVCLRSSDCASGLCCARHFWSKICKPVLKEGQVCTKHRRKGSHGLEIFQRCYCGEGLSCRIQKDHHQASNSSRLHTCQRH	disrupted	disrupted	reduced	
LRP6N+T: truncated LRP6 containing the extracellular and transmembrane domains, tagged with VSVG (protein, left off: small tags and cut ends, truncated LRP6 containing the extracellular and transmembrane domains, tagged with VSVG) APLLLYANRRDLRLVDATNGKENATIVVGGLEDAAAVDFVFSHGLIYWSDVSEEAIKRTEFNKTESVQNVVVSGLLSPDGLACDWLGEKLYWTDSETNRIEVSNLDGSLRKVLFWQELDQPRAIALDPSSGFMYWTDWGEVPKIERAGMDGSSRFIIINSEIYWPNGLTLDYEEQKLYWADAKLNFIHKSNLDGTNRQAVVKGSLPHPFALTLFEDILYWTDWSTHSILACNKYTGEGLREIHSDIFSPMDIHAFSQQRQPNATNPCGIDNGGCSHLCLMSPVKPFYQCACPTGVKLLENGKTCKDGATELLLLARRTDLRRISLDTPDFTDIVLQLEDIRHAIAIDYDPVEGYIYWTDDEVRAIRRSFIDGSGSQFVVTAQIAHPDGIAVDWVARNLYWTDTGTDRIEVTRLNGTMRKILISEDLEEPRAIVLDPMVGYMYWTDWGEIPKIERAALDGSDRVVLVNTSLGWPNGLALDYDEGKIYWGDAKTDKIEVMNTDGTGRRVLVEDKIPHIFGFTLLGDYVYWTDWQRRSIERVHKRSAEREVIIDQLPDLMGLKATNVHRVIGSNPCAEENGGCSHLCLYRPQGLRCACPIGFELISDMKTCIVPEAFLLFSRRADIRRISLETNNNNVAIPLTGVKEASALDFDVTDNRIYWTDISLKTISRAFMNGSALEHVVEFGLDYPEGMAVDWLGKNLYWADTGTNRIEVSKLDGQHRQVLVWKDLDSPRALALDPAEGFMYWTEWGGKPKIDRAAMDGSERTTLVPNVGRANGLTIDYAKRRLYWTDLDTNLIESSNMLGLNREVIADDLPHPFGLTQYQDYIYWTDWSRRSIERANKTSGQNRTIIQGHLDYVMDILVFHSSRQSGWNECASSNGHCSHLCLAVPVGGFVCGCPAHYSLNADNRTCSAPTTFLLFSQKSAINRMVIDEQQSPDIILPIHSLRNVRAIDYDPLDKQLYWIDSRQNMIRKAQEDGSQGFTVVVSSVPSQNLEIQPYDLSIDIYSRYIYWTCEATNVINVTRLDGRSVGVVLKGEQDRPRAVVVNPEKGYMYFTNLQERSPKIERAALDGTEREVLFFSGLSKPIALALDSRLGKLFWADSDLRRIESSDLSGANRIVLEDSNILQPVGLTVFENWLYWIDKQQQMIEKIDMTGREGRTKVQARIAQLSDIHAVKELNLQEYRQHPCAQDNGGCSHICLVKGDGTTRCSCPMHLVLLQDELSCGEPPTCSPQQFTCFTGEIDCIPVAWRCDGFTECEDHSDELNCPVCSESQFQCASGQCIDGALRCNGDANCQDKSDEKNCEVLCLIDQFRCANGQCIGKHKKCDHNVDCSDKSDELDCYPTEEPAPQATNTVGSVIGVIVTIFVSGTVYFI				associated with PTH1R as effectively as did full-length LRP6
LRP6T+C: truncated LRP6 containing the transmembrane and intracellular domains, tagged with VSVG (protein, left off: small tags and cut ends, truncated LRP6 containing the transmembrane and intracellular domains, tagged with VSVG) TNTVGSVIGVIVTIFVSGTVYFICQRMLCPRMKGDGETMTNDYVVHGPASVPLGYVPHPSSLSGSLPGMSRGKSMISSLSIMGGSSGPPYDRAHVTGASSSSSSSTKGTYFPAILNPPPSPATERSHYTMEFGYSSNSPSTHRSYSYRPYSYRHFAPPTTPCSTDVCDSDYAPSRRMTSVATAKGYTSDLNYDSEPVPPPPTPRSQYLSAEENYESCPPSPYTERSYSHHLYPPPPSPCTDSS				could barely be detected
sclerostin: secreted protein binding to LRP6 at the extracellular domain (protein, UniProt Q9BQB4 24-213, looked up) Sclerostin: QGWQAFKNDATEIIPELGEYPEPPPELENNKTMNRAENGGRPPHHPFETKDVSEYSCRELHFTRYVTDGPCRSAKPVTELVCSGQCGPARLLPNAIGRGKWWRPSGPDFRCIPDRYRAQRVQLLCPGGEAPRARKVRLVASCKCKRLTRFHNQSELKDFGTEAARPQKGRKPRPRARSAKANQAELENAY	disrupted	disrupted		
